Data taken from the nanobody polyreactivity screen of Harvey et al. (2022).

Test: yeast display, Sf9 membrane polyspecificity reagent, FACS + sequencing; frameworks hold sequencing errors
Outline: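 Nanobodies came from a synthetic yeast display library in Saccharomyces cerevisiae BJ5465, induced with galactose for 36–48 hours and stained for 1 hour at 4 °C with 10% biotinylated, detergent-solubilized Sf9 membrane reagent. Cells were enriched on streptavidin microbeads and then FACS-sorted, with low and high (top ~1%) gates set on anti-HA fluorescence for expression and streptavidin fluorescence for reagent binding. Each polyreactivity label reflects the gate a clone came from. Genes were amplified by colony PCR, sequenced by MiSeq 2 × 250 and filtered by CDR length.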

| Sequence | polyreactivity (PSR sort gate) |
| --- | --- |
| QVQLVDSGGGLVQAGGSLRLSCAASGRIFYYYAMGWYRQAPGKEREFVAAINSRDGSTNYADSVKGRFTISRDNAKNTVYLQMNSLKPEDTAVYYCAAEGYRSWRGLRSRYYYWGQGTQVTVSS | high polyreactivity |
| QVQLVDSGGGLVQAGGSLRLSCAASGRIIGGKAMGWYRLAPGKVREFVAAIRASGGSPHYADSVKGRFTISRDNAKNTVYLQRNSLTPEDTEVYYCNALSRNTHLYDYWGQGTHVTVSS | high polyreactivity |
| QVQLVDSGGGLVQAGGSLRLSCAASGRPSVLMLMGWYRQAPGKERELVAAIDDSTDTTYYADSVKGRFTISRDNAKNTVYLQMNSLKPEDTAVYYCAAEEGYVKFSGSWSYGYDYWGQGTQVTVSS | high polyreactivity |
| QVQLVDSGGGLVQAGGSLRLSCAASGRTFAYNDMGWYRQAPGKERELVAAISWSDGTTYYADSVKWRFTISRDNAKNTVYLQMNRLKPEDTAVYYCAAVSIYWGQGTQVTVSS | low polyreactivity |
| QVQLVDSGGGLVQAGGSLRLSCAASGRTFGVYAIGWYRQAPGKERELVAAITSGGSTNYADSVKGLLTISRDNANNTVYLQMNSLKPEDTAVYYCAARYKAYWQLYDYWGQGTQVTVSS | high polyreactivity |
| QVQLVDSGGGLVQAGGSLRLSCAASGRTFKRYDMGWYRQAPGKEREFVAAISWTGGSTYYADTVKGRFTISRDHAKNSVYLQMNSLKPEDTAVYYCARKFLWQGFVYWGQGTQVTVSS | low polyreactivity |
| QVQLVDSGGGLVQAGGSLRLSCAASGRTFKRYDMGWYRQAPRKEREFVAAISWTGGSTYYADTVKGRFTISRDNEKNTVYLQMNSLKPEDTAVYYCARKFLWKGFDYWGQGTQVTVSS | low polyreactivity |
| QVQLVDSGGGLVQAGGSLRLSCAASGRTFNWYAMGWYRQETRKERELVAAISSTGGSTYYADSVKGRFTISRDNAKNTVYLQMNSLKPEDTAVYYCAAALPGYGDYYYWGQGTQVTVSS | high polyreactivity |
| QVQLVDSGGGLVQAGGSLRLSCAASGRTFQFYVMGWYRQAPGKERELVASIRSGGSTNYADSVKGRFTISRDNAKNTVYLQMNSLKPEDTAVYYCATESYPADQDIPGSDYWGQGTQVTVSS | low polyreactivity |
| QVQLVDSGGGLVQAGGSLRLSCAASGRTFRYYAMGWYRQAPGKERELVATITGSGGSTYYADSVKGRFTISRDNAKNTVYLQLISLKPEDTAVYYCNARKVRYPYRWYDYWGQGTQVTVSS | high polyreactivity |
| QVQLVDSGGGLVQAGGSLRLSCAASGRTFSGNAMGWYRQAPGKERELVAAIRGGGSTYYADSVKGRFTISRDNAKNTVYLQMNSLKPEDTAVYYCAGRSQVYAPAYYRSKYDYWGQGTQVTVSS | high polyreactivity |
| QVQLVDSGGGLVQAGGSLRLSCAASGRTFVPYAMGWYRQAPGKERELVAAISSGGDTNYADSVKGRFTISRDNAKNTVYLQMTSLKPEDTAVYYCNADSYYYVYGYDMGYWGQGTQVTVSS | low polyreactivity |
| QVQLVDSGGGLVQAGGSLRLSCAASGRTFYDNDMGWYRQAPGKERELVARIRRGGNTKYADSVKGRFTISRDNAKNTVYLQMNSLKPEDTAVYYCNRDYGSKIYDYWGQGSQVTVSS | low polyreactivity |
| QVQLVDSGGGLVQAGGSLRLSCAASGRTIRYNAMGWYRQAPGKERELVAVINSNGGSTYYADSVKGRFTISRDNSKNTVYLQMNSLKPEDTAVYYCAADYIRIQEYDYWGQGTQVTVSS | low polyreactivity |
| QVQLVDSGGGLVQAGGSLRLSCAASGRTISGYAMGWYRQAPGKERELVAAITSRGGRTYYADSVKGRFTISRDNAKNTVYLQMNSLKPEDTAVYYCAAYRRLTLYDYWGQGTQVTVSS | high polyreactivity |
| QVQLVDSGGGLVQAGGSLRLSCAASGRTIVYYAMGWYRQAPGKERELVAAIRSGGSTNYADSVKGRFTISRDNAKNTVYLQMNSLKPEDTAVYYCNAVHYYYYKGDYWGQGTQVTVSS | high polyreactivity |

| Sequence | polyreactivity (PSR sort gate) |
| --- | --- |
| QVQLVDSGGGLVQAGGSLRLSCAASGRTLAFNAMGWYRQAPGKERELVAVIRNGTSTNYADSVKGRFTISRDNAKNTVYLQMNSLKPEDTGVYYCNVPYYLPSYLSGYDYWGQGTQVTVSS | low polyreactivity |
| QVQLVDSGGGLVQAGGSLRLSCAASGRTLAGYVMGWYRQAPGKERELVATISNGGSTYYADSVKGRFTISRDNAKNTVYLQMNSLKPEDTAVYYCNRYWYRKHSTDPPVRYRPVGYWGQGTQVTVSS | high polyreactivity |
| QVQLVDSGGGLVQAGGSLRLSCAASGRTLSFYGMGWYRQAPGKERELVAAISSSGSRTYYADSVKGRFTISRDNAKNTVYLQMNSLKPEDTAVYYCNALRIYHHYEYDYWGQGTQVTVSS | high polyreactivity |
| QVQLVDSGGGLVQAGGSLRLSCAASGSIFDANAMGWYRQAPGKERELVAAITFDSGSTHYADSVKGRFTISRDNAQNTVYLQMNSLKPEDTAVYYCAVRDFNSDYDYWGQGTQVTVSS | low polyreactivity |
| QVQLVDSGGGLVQAGGSLRLSCAASGSIFHFYAMGWYREATGKERELVAAITRGGGSTYYADSVKGRFTISRDNAKNTVYLQMNSLKPEDTAVYYCAAYKYYRYNYWGQGTQVTVSS | high polyreactivity |
| QVQLVDSGGGLVQAGGSLRLSCAASGSIFKTYAMGWYRQAPGKERELVATNTRRTGSTYYADSVKGRFTISRDNAMNSVYLQMNSLKPEDPAVYYCAAELYPSWSHTVFHGYNYWGQGTQVTVSS | high polyreactivity |
| QVQLVDSGGGLVQAGGSLRLSCAASGSIFPYNDMGWYRKAPGKERELVARITNGGSTNYADSVKGRFTISRDNAKNTVYLQMNSLKPEDTAVYYCNKDGTQEFAPDGHEYWGQCTQVTVSS | low polyreactivity |
| QVQLVDSGGGLVQAGGSLRLSCAASGSIFYHNAMGWSRQAPGKERELVAAITWSGSTTYYADSVKGRFTISRDNAKNTVYLQMNRLKPEDTAVYYCAVDIYYYSNVHYYYWGQGTQVTVSS | low polyreactivity |
| QVQLVDSGGGLVQAGGSLRLSCAASGSIITYYAMGWYRQAPGKERELVAGISRRGASTYYADSVKGRFTISRDNAKNTVYLQMNSLNPEDTEVYYCAAVPYYYYGFDYWGQGTQVTVSS | high polyreactivity |
| QVQLVDSGGGLVQAGGSLRLSCAASGSILGAKDMGWFRQAPGKERELVATITWNGGGTSYADSVKGRFTISRDNAKNTVYLQMNSLKAEDTAVYYFNALGRDSQALYRYRLVGEFGYWGQGSQVTVSS | low polyreactivity |
| QVQLVDSGGGLVQAGGSLRLSCAASGSILYHYAMGWYRQAPGKERELVAGISWRGGSTYYADSVKGRFTISRDNAKNTVYLQMNSLKPEATAVYYCATQRYPYRFYAFQYYYWGQGTQVTVSS | low polyreactivity |
| QVQLVDSGGGLVQAGGSLRLSCAASGSNITRKAMGWYRQAPGKERELVAAIRKIGGRTYYADSVKGRFTISRDNAKNTVYLQMNSLKPEDTAVYYCAAGGSYYRDDYWGQGTQVTVSS | low polyreactivity |
| QVQLVDSGGGLVQAGGSLRLSCAASGSTFAFYAMVWSRQAPGKERELVAANSSNGVSTYYADSVKGRFTISRDNAKNTVYLQMKSLKPEDTAVYYCARDVYASPRLYTSRYNYWGQGTQVTVSS | low polyreactivity |
| QVQLVDSGGGLVQAGGSLRLSCAASGSTFAPYAMGWSRQAPGKERELVAAISWGGGSTYYADSVKGRFTISRDNAKNTVYLQMNSLKPEDTAVYYCAADYAEYSAEWYEDWGQGTQVTVSS | high polyreactivity |
| QVQLVDSGGGLVQAGGSLRLSCAASGSTFFFNDLGWSRQAPGKESEFVAGISSSGGSTHYADSVKGRFTISRDKAKNTVYFQMNSLKPEDTAVYYCNTLRNWYYQFDFNYWGQGTQVTVSS | low polyreactivity |
| QVQLVDSGGGLVQAGGSLRLSCAASGSTFGGNAMGWYRQAPGKERELVAAITGSGGRTFYADSVKGRFTISRDNAKNTVYLQMNSLNPEDTAVYYCAADSYIYSVNYWGQGTQLTVSS | low polyreactivity |
